Test results published in patent US20250092146A1, “ANTI-CCR8 ANTIBODIES, CONJUGATES, AND USES THEREOF” (Abilita Bio, Inc., priority 2023, published 2025).

Target: T1, HuT-78 cells that naturally express human CCR8 (Homo sapiens, UniProt P51685)
T1 construct: HuT-78 cells that naturally express human CCR8 were used as target cells; endogenous in cells; host or cells: HuT-78
Experiment: Flow cytometry binding of yeast-display optimized VHH-Fc antibodies to HuT-78 cells
Conditions: Table 13; for EC50: clones tested as VHH-Fc fusions (human IgG1 Fc), HuT-78 cells; for Normalized Bmax (%): normalized to VHH-1 or VHH-2 depending on clone family
Description: Top VHH sequences were chosen from the FACS sorted populations based on an analysis of improved binding performance relative to the parental sequences and evidence of sequence enrichment by NGS. Candidate VHH were then cloned as VHH-Fc fusions to the short hinge of the IgG1 Fc domain (SEQ ID NO: 34), expressed in HEK293 cells as described earlier and purified for binding evaluation. Bmax values are shown as normalized to VHH-1 or VHH-2 depending on the clone family. […] Mutations are referenced by position according to the IMGT definition.

T1 sequence (P51685 whole entry): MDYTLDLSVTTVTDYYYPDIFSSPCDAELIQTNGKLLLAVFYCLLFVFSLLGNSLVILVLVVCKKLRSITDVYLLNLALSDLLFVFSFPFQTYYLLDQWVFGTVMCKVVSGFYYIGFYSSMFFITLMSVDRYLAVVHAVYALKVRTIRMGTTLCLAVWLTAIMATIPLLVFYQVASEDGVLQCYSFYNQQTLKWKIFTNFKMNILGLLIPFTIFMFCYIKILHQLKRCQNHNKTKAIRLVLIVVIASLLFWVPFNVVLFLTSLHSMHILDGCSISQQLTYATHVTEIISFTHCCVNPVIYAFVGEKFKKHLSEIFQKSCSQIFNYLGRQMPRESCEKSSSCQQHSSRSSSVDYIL

Molecule	EC50 [nM]	Normalized Bmax (%)
VHH-1.3-6: VHH-1.3 variant R55H, SEQ ID NO: 191; tested as Fc fusion (protein) VHH: EVQLVESGGGLVQPGGSLRLSCAASGSTSSIRRIGWYRQAPGKGRELVAHFSSGGGTNYADSVKGRFTISGDNSKNTMYLQMNSLRAEDTAVYYCSARRLLGTSRVDYWGQGTTVTVSS	3.75	97.0
VHH-1.3-20: VHH-1.3 variant A25V, R38G, S57I, R108I, SEQ ID NO: 205; tested as Fc fusion (protein) VHH: EVQLVESGGGLVQPGGSLRLSCAVSGSTSSIRGIGWYRQAPGKGRELVARFISGGGTNYADSVKGRFTISGDNSKNTMYLQMNSLRAEDTAVYYCSARILLGTSRVDYWGQGTQVTVSS	0.49	107.6
VHH-1.3-4: VHH-1.3 variant R38T, R108I, SEQ ID NO: 189; tested as Fc fusion (protein) VHH: EVQLVESGGGLVQPGGSLRLSCAASGSTSSIRTIGWYRQAPGKGRELVARFSSGGGTNYADSVKGRFTISGDNSKNTMYLQMNSLRAEDTAVYYCSARILLGTSRVDYWGQGTTVTVSS	7.68	82.4
VHH-1.3-11: VHH-1.3 variant G64T, SEQ ID NO: 196; tested as Fc fusion (protein) VHH: QVQLQESGGGLVQPGGSLRLSCAASGSTSSIRRIGWYRQAPGKGRELVARFSSGGTINYADSVKGRFTISGDNSKNTMYLQMNSLRAEDTAVYYCSARRLLGTSRVDYWGQGTQVTVSS	0.61	79.6
VHH-1.3-10: VHH-1.3 variant T65I, L110V, SEQ ID NO: 195; tested as Fc fusion (protein) VHH: QVQLQESGGGLVQPGGSLRLSCAASGSTSSIRRIGWYRQAPGKGRELVARFSSGGGINYADSVKGRFTISGDNSKNTMYLQMNSLRAEDTAVYYCSARRLVGTSRVDYWGQGTQVTVSS	1.3	125.4
VHH-1.3-7: VHH-1.3 variant A25V, R55H, N82K, SEQ ID NO: 192; tested as Fc fusion (protein) VHH: EVQLVESGGGLVQPGGSLRLSCAVSGSTSSIRRIGWYRQAPGKGRELVAHFSSGGGTNYADSVKGRFTISGDKSKNTMYLQMNSLRAEDTAVYYCSARRLLGTSRVDYWGQGTTVTVSS	0.56	111.8
VHH-1.3-13: VHH-1.3 variant A25V, R38G, S57I, SEQ ID NO: 198; tested as Fc fusion (protein) VHH: EVQLVESGGGLVQPGGSLRLSCAVSGSTSSIRGIGWYRQAPGKGRELVARFISGGGTNYADSVKGRFTISGDNSKNTMYLQMNSLRAEDTAVYYCSARRLLGTSRVDYWGQGTQVTVSS	0.38	91.1

The remaining molecules from weak to strong by EC50, led by results:

EC50 [nM]	Normalized Bmax (%)	Molecule
4.42	90.1	VHH-1.3-5: VHH-1.3 variant R55G, SEQ ID NO: 190; tested as Fc fusion (protein) VHH: EVQLVESGGGLVQPGGSLRLSCAASGSTSSIRRIGWYRQAPGKGRELVAGFSSGGGTNYADSVKGRFTISGDNSKNTMYLQMNSLRAEDTAVYYCSARRLLGTSRVDYWGQGTTVTVSS
3.1	79.0	VHH-1.3-16: VHH-1.3 variant S35T, R37V, G64S, R108I, SEQ ID NO: 201; tested as Fc fusion (protein) VHH: EVQLVESGGGLVQPGGSLRLSCAASGSTSTIVRIGWYRQAPGKGRELVARFSSGGSTNYADSVKGRFTISGDNSKNTMYLQMNSLRAEDTAVYYCSARILLGTSRVDYWGQGTTVTVSS
2.82	107.1	VHH-1.3-15: VHH-1.3 variant S58G, SEQ ID NO: 200; tested as Fc fusion (protein) VHH: EVQLVESGGGLVQPGGSLRLSCAASGSTSSIRRIGWYRQAPGKGRELVARFSGGGGTNYADSVKGRFTISGDNSKNTMYLQMNSLRAEDTAVYYCSARRLLGTSRVDYWGQGTTVTVSS
1.81	104.4	VHH-1.3-3: VHH-1.3 variant I39Y, G40S, R55W, SEQ ID NO: 188; tested as Fc fusion (protein) VHH: EVQLVESGGGLVQPGGSLRLSCAASGSTSSIRRYSWYRQAPGKGRELVAWFSSGGGTNYADSVKGRFTISGDNSKNTMYLQMNSLRAEDTAVYYCSARRLLGTSRVDYWGQGTQVTVSS
1.24	79.6	VHH-1.3-12: VHH-1.3 variant S28F, G64T, L110Y, SEQ ID NO: 197; tested as Fc fusion (protein) VHH: EVQLVESGGGLVQPGGSLRLSCAASGFTSSIRRIGWYRQAPGKGRELVARFSSGGTTNYADSVKGRFTISGDNSKNTMYLQMNSLRAEDTAVYYCSARRLYGTSRVDYWGQGTQVTVSS
0.9	131.9	VHH-1.3-14: VHH-1.3 variant G64S, L110V, SEQ ID NO: 199; tested as Fc fusion (protein) VHH: EVQLVESGGGLVQPGGSLRLSCAASGSTSSIRRIGWYRQAPGKGRELVARFSSGGSINYADSVKGRFTISGDNSKNTMYLQMNSLRAEDTAVYYCSARRLVGTSRVDYWGQGTQVTVSS
0.67	72.8	VHH-1.3-17: VHH-1.3 variant R37V, R55H, R108I, N83K, SEQ ID NO: 202; tested as Fc fusion (protein) VHH: EVQLVESGGGLVQPGGSLRLSCAVSGSTSSIVRIGWYRQAPGKGRELVAHFSSGGGTNYADSVKGRFTISGDKSKNTMYLQMNSLRAEDTAVYYCSARILLGTSRVDYWGQGTTVTVSS
0.45	130.0	VHH-1.3-19: VHH-1.3 variant A25V, R38G, R55H, N83K, SEQ ID NO: 204; tested as Fc fusion (protein) VHH: EVQLVESGGGLVQPGGSLRLSCAVSGSTSSIRGIGWYRQAPGKGRELVAHFSSGGGTNYADSVKGRFTISGDKSKNTMYLQMNSLRAEDTAVYYCSARRLLGTSRVDYWGQGTQVTVSS
0.31	113.4	VHH-1.3-18: VHH-1.3 variant A25V, R38G, S57I, N83K, SEQ ID NO: 203; tested as Fc fusion (protein) VHH: EVQLVESGGGLVQPGGSLRLSCAVSGSTSSIRGIGWYRQAPGKGRELVARFISGGGTNYADSVKGRFTISGDKSKNTMYLQMNSLRAEDTAVYYCSARRLLGTSRVDYWGQGTTVTVSS
